The numbers were not newly measured in patent JP2018508186A, “Il−17a結合ポリペプチド” (アフィボディ アクティエボラーグ, priority 2015, dated 2016), which cites them from elsewhere.

For data set [1], the target named is T1, IL-17A (Homo sapiens, UniProt Q16552). Particulars: from WO2006/013107 and WO2012/125680; read-out: IC50, hIL-6 production neutralising activity, reported.
The target of data set [2] is T1, IL-17A. Particulars: from WO2006/013107, WO2012/125680, WO2007/070750; read-out: KD for IL-17A, reported.

T1 sequence (Q16552 24-155): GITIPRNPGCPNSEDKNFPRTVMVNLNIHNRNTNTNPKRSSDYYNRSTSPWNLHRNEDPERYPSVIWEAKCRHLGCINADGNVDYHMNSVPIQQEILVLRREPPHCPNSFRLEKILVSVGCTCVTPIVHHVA

Regarding セクキヌマブ: anti-IL-17A monoclonal antibody, in the data set with IL-17A [1], the IC50 is 2.1 ± 0.1 nM. In addition, in the data set with IL-17A [2], the Kd is 0.122 nM.
For the substance “イキセキズマブ: anti-IL-17A monoclonal antibody”, the Kd with IL-17A [2] was 0.002 nM.
